± gives the half width of the 95% confidence interval.
Columns and labels:
[1] = folding stability dG unfold from trypsin proteolysis; higher = more stable
Procedure, shortened: (§1)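 Digests were run with trypsin and chymotrypsin at 11 concentrations in threefold dilutions, plus a no-protease condition, on designed mini-proteins in a PA-tagged cDNA display construct. The mini-proteins were under 80 residues, had no cysteine, and were kept only when AlphaFold2 dimer inter-PAE was above 15. After sequencing, Bayesian fitting of the counts gave K50, from which unfolding free energy was derived against a sequence-predicted unfolded-state K50 and a shared folded-state K50, per protease or combined.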

[2] = folding stability dG unfold from chymotrypsin proteolysis; higher = more stable
Procedure, shortened: as §1

[3] = folding stability dG unfold (combined trypsin and chymotrypsin); higher = more stable
Procedure, shortened: as §1

Sequence | folding stability dG unfold [1] [kcal/mol] | folding stability dG unfold [2] [kcal/mol] | folding stability dG unfold [3] [kcal/mol]
SMNIISIDIEPYRTGGEPWIYIPIQVPDENMPPSELEEIVEEIFEKLGLPINVKVHRDPNSGTIWIMIRLSA [r9_717_TrROS] | 2.72 ± 0.15 | 2.79 ± 0.13 | 2.75 ± 0.27
SMNITVTYDPETDTVTIEIDDEEIDPETLRELLDAIPPNVKRVIIHVDHPETARTVEELAKETGLPVEIASA [r9_919_TrMRF] | 3.96 ± 0.077 | 3.2 ± 0.13 | 3.97 ± 0.12
SMPKIEVKIEYDEETGEITVEIRVPETEEEALEALRKLAEEAGLEVEVEEVEIEEVDGELVIRVKVRIKPSA [r9_164_TrROS_Hall] | 3.57 ± 0.21 | 2.44 ± 0.16 | 3.08 ± 0.28
SMPLTPAEVAEARARAAREAAEAAAGVPVTVRVTLSTPDRELTVTLPATESLAAVMKAHPDVTVEVEVEASA [r9_513_JUSTAS] | 0.459 ± 0.043 | 0.0452 ± 0.11 | 0.284 ± 0.059
SMPLTPEEVEEVVEAVAKELEEETGEEVKAEVFYDPETGRFYAVIELPDGRRVRIEIDPETGEVRVEVEASA [r9_9_TrMRF] | 3.8 ± 0.13 | 4.17 ± 0.15 | 4.02 ± 0.1
SMPPDEKLIFVTRFKVKPDNPEDIEKALAAARETVRALLEELGLPEVKEVRVLRVEVHPDGYVTVVVEVGSA [r9_754_TrMRF] | 4.05 ± 0.11 | 4.73 ± 0.1 | 4.49 ± 0.08
SMPRLVATPRPDGSVLVLLEAPPERPEEIAEEIRERLGVPLRVVRIEPVPERVGDRPRLRYRVLIEVDVRSA [r9_431_TrMRF] | 0.96 ± 0.077 | 0.923 ± 0.12 | 0.976 ± 0.095
SMPVTITITLHKDPNSDVIPVRLEMTDSAGNPIGEREIDYTTTEEEARERAVALAEEIAAATGYTIEFGESA [r9_31_JUSTAS] | 1.27 ± 0.069 | 0.266 ± 0.22 | 0.8 ± 0.11
SMPVTITRDFDIPLATLSVEEVKAAIEEALKAEGLNVVEPKLDEKLVKELEEAPPSSTLPVKVTVLVEPASA [r9_1163_JUSTAS] | 0.35 ± 0.074 | 0.715 ± 0.049 | 0.62 ± 0.15
SMREIPPEDLKKAANAYLNGDKEKVEQLFKDAGFKKVVLEEVEGDGEVLFVALVEHPDGPTVLTVSSSDFSA [r9_783_TrMRF] | 0.7 ± 0.064 | 1.33 ± 0.1 | 1.04 ± 0.25
SMRIHDSNGQSYTIMIRTPDPNVTPEKIVKAIDEAGYKVTEIQRPPEKGHVHINIRVRDRERAIEAIKELSA [r9_1154_TrROS] | 0.231 ± 0.12 | -0.253 ± 0.18 | 0.0402 ± 0.12
SMRKVKRKVTLEITIKVPESVLKPIPDADYYTYPFDDKLVKPDAVIPRTVTITGPYTEEEVEKLVKEILSSA [r9_165_JUSTAS] | 0.749 ± 0.2 | -0.613 ± 0.48 | 0.249 ± 0.25
SMRVTIMIPVPPGLKNLKLEFKLPYPDGREVDVDIQVDPNYITITVEMNNPGQMDWVQERFQEEIEKLLGSA [r9_790_TrROS] | 3.24 ± 0.1 | 4.09 ± 0.15 | 3.64 ± 0.16
SMSMEEAMEWAEENPDRPVIFINPEDWYIMIYNPKKGKMEMRPITSPEEALEELDDENIDRIYIVPADEISA [r9_775_TrROS] | 1.21 ± 0.064 | 2.31 ± 0.061 | 1.96 ± 0.088
SMSPEALKKANEFAEYIAEHFKNWNIEIDVEVEWDPDGEITIRAKIEMRPPPPPPPKPKRDPNGKWKWEGSA [r9_82_TrROS] | 0.943 ± 0.079 | 2.3 ± 0.23 | 1.84 ± 0.51
SMSREELREYARAHPDRPLALILPGKKTLLLFDPATGAEREEDITSVEEAKERLAAQPVAVVEVVSAELLSA [r9_775_JUSTAS] | -0.439 ± 0.37 | 0.499 ± 0.085 | 0.294 ± 0.11
SMSTNLVVKEKLIPPGVLVVTYKKDGKPVKVETKVVVIPPQLVVEEVLYPGGKLALKTYDPLTGTPSFELSA [r9_343_JUSTAS] | -0.122 ± 0.14 | 0.644 ± 0.28 | 0.337 ± 0.29
SMSVEISVPPTNPGASPEEIAAALAAKGRPVEVVSVSEDPSTGTRTVTIAVRAPDGTLEETVVVNAPVGVSA [r9_879_JUSTAS] | 0.495 ± 0.057 | -0.772 ± 0.33 | 0.0853 ± 0.12
SMSYTVTVEYPDTGKTTTTPIPPDALEVSVSLSGPSTIRITITTDVNGATTTTTSTVTLPPPALPPSTLLSA [r9_1067_JUSTAS] | 1.11 ± 0.097 | 0.927 ± 0.28 | 1.06 ± 0.22
SMTAEEIAERLARALEEAGIRRVEVEVTVEYDPETDEVTVTVTIRVEPAPEAPPEEEEERREREEREAEESA [r9_440_TrROS_Hall] | 2.26 ± 0.057 | 2.43 ± 0.09 | 2.31 ± 0.11
SMTAEVTLTIVYPDGTSTTLPMTFPADDPEALRAAIRAAVAAAGYTPTALQMTFTAQPDGSVRVDVTVTVAS [r1_281_JUSTAS] | 4.1 ± 0.059 | 5.7 ± 0.066 | 5.61 ± 0.077

Sequence | folding stability dG unfold [1] [kcal/mol] | folding stability dG unfold [2] [kcal/mol] | folding stability dG unfold [3] [kcal/mol]
SMTFVLPYPKEGKTITVTYPDLESAVSSSGVATFQDPALLAQVIAALPSSVIVKEIKKNPDGTYTLTVAASA [r9_997_JUSTAS] | 0.773 ± 0.043 | -0.066 ± 0.24 | 0.483 ± 0.1
SMTIEIEVDGKTVTVEIDPKTGKIKKVVVKDKETGEWKELSDEEIEKLLKELEDELREKREKLEKEGKEPSA [r9_368_TrROS_Hall] | 2.32 ± 0.24 | 2.5 ± 0.18 | 2.53 ± 0.25
SMTIERHPDKLTVRVPAAFSTVPEVVRFLKELGFELPPGVKDVRVEDVEPGARVVRVTVHFDDPEALERLSA [r9_820_TrMRF] | 1.97 ± 0.024 | 1.58 ± 0.049 | 1.81 ± 0.031
SMTITIERPVPPELTDRPLSLELPLPNGSTVSVKVETSPTTATVTITTNDPSLEAEVKARVEELLARLLASA [r9_790_JUSTAS] | 2.56 ± 0.094 | 2.058 ± 0.02 | 2.27 ± 0.1
SMTLEEAKEIAEKNPDIPVALIFPGKKLIYIYHPKSGKWEVKPVTSIEEAIEALEKEDIDAIFIVPAELDSA [r9_775_TrMRF] | 4.54 ± 0.44 | 3.93 ± 0.087 | 4.06 ± 0.16
SMTLITLTDPVTNVPVEKVEVRKLEDGTYEATVTTKEPSKTTTKTYPLPPDEKITDVLKSLGLKEAEINLSA [r9_492_JUSTAS] | 0.255 ± 0.036 | 0.538 ± 0.093 | 0.445 ± 0.17
SMTLPANAKAKVTVLVLFYDPETGEATLVKVDYTATFKPDDKGNLVVEVEPSKIEFIGPISLEEAKKIAGSA [r9_423_TrMRF] | 2.57 ± 0.15 | 2.11 ± 0.058 | 2.55 ± 0.21
SMTLTIDLDPSVPYLVRIHFVNEDGEPYEADALTTRTPDGTAFVDIALPDDSIPPGADIKILSVEVIPLDSA [r9_359_TrMRF] | 1.63 ± 0.019 | 2.1 ± 0.054 | 1.96 ± 0.051
SMTPEEARALAEAIAAERAAAGYATEMELTVTPVNGVPVATFRFRFTDAAGRATEFTVTVAPDGTVTFTPSA [r9_1027_JUSTAS] | 3.34 ± 0.089 | 3.814 ± 0.031 | 3.64 ± 0.08
SMTTRESTIDASIPGYTVSKVSVTTLPGGERKITITLPSGKVLVLSTPADPALVPLTVTSEFSPEEVAAKSA [r9_1075_JUSTAS] | 0.634 ± 0.057 | 0.0702 ± 0.097 | 0.395 ± 0.051
SMTVSNPRGKTVTVTVTVTVDPNKKSVTVPVTIRTAGEELTFTFTVPKGVNKPVTFSLTVPLPPGSSVISSA [r9_973_JUSTAS] | 3 ± 0.093 | 4.02 ± 0.059 | 3.63 ± 0.089
SMTVVIDIPPEVPVPGSGSVRPVPVEEVLKRVEEAMAKGKKVVVTGRDPKHPLVQEVAARLEELGVEVVGSA [r9_468_JUSTAS] | 0.342 ± 0.029 | 0.71 ± 0.016 | 0.59 ± 0.054
SMVEKLPDGTTVIKGELPLDVSIEDVLAKLPDLKLASRTSETDPATGKRYYTFIVKPDGTVDVTSEPKLLSA [r9_238_JUSTAS] | 0.645 ± 0.027 | 1.21 ± 0.091 | 0.957 ± 0.045
SMVFTLPGGIEIKVEPEEDSYRFVIELPSGERLEVPVPPENLEEFIRELIRKALEIANPNITEEEIEKLASA [r9_634_TrMRF] | 3.22 ± 0.26 | 4.02 ± 0.09 | 3.59 ± 0.29
SMVIEPKPDGTVTVTLPSSLPDLPREEVEAIVREALPPGASLGDSITVSRDPETGEVTVTAPVKFPPELASA [r9_1011_JUSTAS] | 1.55 ± 0.076 | 0.544 ± 0.025 | 1.03 ± 0.084
SMVIPPGSRAEFRLEDVPVRLEVEEGSGKVHFRVFSPENPDEEVFEAEFDINDLKPLDLPPELREAFEKESA [r9_1051_TrMRF] | 0.652 ± 0.057 | 1.18 ± 0.32 | 0.955 ± 0.18
SMVITLPVEDEEKLKELLDELKEQLEKAEEEGLETVTITITLEDGETLEITIDKNMTVEELLEQLEKALESA [r9_127_TrROS_Hall] | 3.22 ± 0.33 | 1.57 ± 0.12 | 2.61 ± 0.29
SMVKIYFPNAPPELVAEAIEKHPDSTVEIYFEPGKPDVFESILKDYDVEVEPFPTEDGRLLVKARVKVPGSA [r9_1138_TrMRF] | 2.11 ± 0.13 | 1.32 ± 0.12 | 1.74 ± 0.29
SMVVIEVEPNPETNSLTAKVYLPKDGKKVVEIERSPDGTVKVTVYYKDGSKEEFTFPEDIPIEEAIKKAISA [r9_346_TrMRF] | 1.16 ± 0.037 | 1.1 ± 0.13 | 1.15 ± 0.095
SMVVPVLIEKPYTSPEELEEFKKEAEELVKKLAEETGYPIKVLETKYTTDPNTNVVSLTLVVEIVSPELNSA [r9_105_JUSTAS] | 1.97 ± 0.1 | 2.6 ± 0.14 | 2.45 ± 0.17
SMVYVFEVPEGDPEKAEELIRAKLEEEFGYKVESVATPGGGGARVVLVVDPVEDKAYAEVIPFAPDGSPASA [r9_173_TrMRF] | -0.529 ± 0.21 | 1.15 ± 0.2 | 0.618 ± 0.16

Reference: the supplement of paper PMC12764529
